This is an account of results in patent US20200164029A1 (ACCELERON PHARMA, published 2020).

One test concerns the target T1, hENG(61-346)-hFc (human, UniProt P17813 61-346).
T1 construct: not shown: human IgG1 Fc domain
T1 sequence: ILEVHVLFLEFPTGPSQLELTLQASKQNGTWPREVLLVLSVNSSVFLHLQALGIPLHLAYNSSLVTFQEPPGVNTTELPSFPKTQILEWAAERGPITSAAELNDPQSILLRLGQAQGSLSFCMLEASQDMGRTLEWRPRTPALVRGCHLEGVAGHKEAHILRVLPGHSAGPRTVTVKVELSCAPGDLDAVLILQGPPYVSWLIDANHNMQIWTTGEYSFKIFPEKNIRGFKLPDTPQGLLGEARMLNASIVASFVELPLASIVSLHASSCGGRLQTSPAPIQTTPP
As to the kind of experiment: SPR, captured hENG-hFc, soluble ligand. (Surface plasmon resonance follows binding to a sensor surface in real time, without labels.)

For another test, the target named is T2, hENG(129-346)-hFc (human, UniProt P17813 129-346).
T2 construct: not shown: human IgG1 Fc domain
T2 sequence: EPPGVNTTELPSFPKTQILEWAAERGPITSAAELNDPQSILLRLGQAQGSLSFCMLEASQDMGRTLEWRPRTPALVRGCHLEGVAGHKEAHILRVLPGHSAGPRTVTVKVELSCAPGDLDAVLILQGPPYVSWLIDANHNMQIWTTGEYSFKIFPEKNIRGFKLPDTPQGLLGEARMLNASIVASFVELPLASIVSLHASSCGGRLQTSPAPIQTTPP
As to the kind of experiment: SPR, captured hENG-hFc, soluble ligand.

Another test addresses T3, hENG(26-581)-hFc (human, UniProt P17813 26-581).
T3 construct: not shown: human IgG1 Fc domain
T3 sequence: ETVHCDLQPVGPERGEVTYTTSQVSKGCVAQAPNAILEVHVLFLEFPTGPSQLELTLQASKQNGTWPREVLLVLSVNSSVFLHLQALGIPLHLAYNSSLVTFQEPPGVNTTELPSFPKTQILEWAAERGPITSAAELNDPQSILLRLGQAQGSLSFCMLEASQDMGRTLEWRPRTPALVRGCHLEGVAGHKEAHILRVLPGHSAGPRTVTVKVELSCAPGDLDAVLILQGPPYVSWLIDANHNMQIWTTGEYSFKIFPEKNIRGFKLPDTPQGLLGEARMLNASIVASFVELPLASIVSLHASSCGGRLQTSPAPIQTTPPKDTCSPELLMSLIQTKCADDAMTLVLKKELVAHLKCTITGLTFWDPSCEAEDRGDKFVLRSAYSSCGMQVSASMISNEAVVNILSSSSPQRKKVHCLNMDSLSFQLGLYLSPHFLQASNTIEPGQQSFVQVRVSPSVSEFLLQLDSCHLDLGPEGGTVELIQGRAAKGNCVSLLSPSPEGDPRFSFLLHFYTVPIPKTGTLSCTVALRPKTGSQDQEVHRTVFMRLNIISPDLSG
As to the kind of experiment: SPR, captured hENG-hFc, ligand at 100 nM; ++++ = KD < 1 nM.

Test [1] addresses T4, hENG(26-586) (R&D Systems, catalog #1097-EN) (human, UniProt P17813 26-586).
T4 construct: also called soluble human ENG extracellular domain
T4 sequence: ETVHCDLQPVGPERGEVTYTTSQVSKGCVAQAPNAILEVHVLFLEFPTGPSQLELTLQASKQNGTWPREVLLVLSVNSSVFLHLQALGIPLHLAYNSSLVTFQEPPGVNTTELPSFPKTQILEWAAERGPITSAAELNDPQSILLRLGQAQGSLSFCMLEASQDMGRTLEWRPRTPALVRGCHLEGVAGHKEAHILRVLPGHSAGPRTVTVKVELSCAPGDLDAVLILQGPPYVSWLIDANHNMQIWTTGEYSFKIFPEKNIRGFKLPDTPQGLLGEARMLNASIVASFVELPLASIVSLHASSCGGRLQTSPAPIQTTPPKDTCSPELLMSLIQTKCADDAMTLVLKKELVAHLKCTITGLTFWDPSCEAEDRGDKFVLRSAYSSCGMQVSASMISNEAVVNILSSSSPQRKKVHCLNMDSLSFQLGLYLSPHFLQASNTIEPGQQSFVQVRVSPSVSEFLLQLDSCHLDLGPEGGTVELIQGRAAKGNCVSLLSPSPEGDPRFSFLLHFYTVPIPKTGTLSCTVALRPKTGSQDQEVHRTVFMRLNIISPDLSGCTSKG
As to the kind of experiment: SPR competition in solution: 0-50 nM hENG(26-586) premixed with 10 nM BMP-10, binding of BMP-10 to captured ALK1-hFc read out. An excerpt: (§1) BMP-9 and BMP-10 are high-affinity ligands at the type I receptor ALK1 (activin receptor-like kinase 1). […] Similar results were obtained with BMP-10 (FIG. 21).

For test [2], the target named is T4, hENG(26-586) (R&D Systems, catalog …). As to the kind of experiment: SPR competition in solution: 0-50 nM hENG(26-586) premixed with 10 nM BMP-9, binding of BMP-9 to captured ALK1-hFc read out.
Source text: as §1

B1: human BMP-10 (ligand, UniProt O95393 317-424, looked up)
chain: NAKGNYCKRTPLYIDFKEIGWDSWIIAPPGYEAYECRGVCNYPLAEHLTPTKHAIIQALVHLKNSQKASKACCVPTKLEPISILYLDKGVVTYKFKYEGMAVSECGCR
notes: also called hBMP-10
With B1, the binding result was “no binding (tested: 100 nM)” in the test with hENG(61-346)-hFc, “no binding (tested: 100 nM)” with hENG(129-346)-hFc, “binds” in the test with hENG(26-581)-hFc and “binds” in test [1].

B2: human BMP-9 (ligand, UniProt Q9UK05 320-429, looked up)
chain: SAGAGSHCQKTSLRVNFEDIGWDSWIIAPKEYEAYECKGGCFFPLADDVTPTKHAIVQTLVHLKFPTKVGKACCVPTKLSPISVLYKDDMGVPTLKYHYEGMSVAECGCR
notes: also called hBMP-9
For the molecule B2, the binding result is “no binding (tested: 100 nM)” with hENG(61-346)-hFc, “no binding (tested: 100 nM)” with hENG(129-346)-hFc, “binds” in the test with hENG(26-581)-hFc and “binds” in test [2].
